Reference: article PMC4154873, “Delineation of Interfaces on Human Alpha-Defensins Critical for Human Adenovirus and Human Papillomavirus Inhibition” (PLoS Pathogens, 2014)

B1: unnamed (parent)
chain 1: ATCYCRTGRCATRESLSGVCEISGRLYRLCCR
chain 2: MKRARPSEDTFNPVYPYDTETGPPTVPFLTPPFVSPNGFQESPPGVLSLRLSEPLVTSNGMLALKMGNGLSLDEAGNLTSQNVTTVSPPLKKTKSNINLEISAPLTVTSEALTVAAAAPLMVAGNTLTMQSQAPLTVHDSKLSIATQGPLTVSEGKLALQTSGPLTTTDSSTLTITASPPLTTATGSLGIDLKEPIYTQNGKLGLKYGAPLHVTDDLNTLTVATGPGVTINNTSLQTKVTGALGFDSQGNMQLNVAGGLRIDSQNRRLILDVSYPFDAQNQLNLRLGQGPLFINSAHNLDINYNKGLYLFTASNNSKKLEVNLSTAKGLMFDATAIAINAGDGLEFGSPNAPNTNPLKTKIGHGLEFDSNKAMVPKLGTGLSFDSTGAITVGNKNNDKLTLWTTPAPSPNCRLNAEKDAKLTLVLTKCGSQILATVSVLAVKGSLAPISGTVQSAHLIIRFDENGVLLNNSFLDPEYWNFRNGDLTEGTAYTNAVGFMPNLSAYPKSHGKTAKSNIVSQVYLNGDKTKPVTLTITLNGTQETGDTTPSAYSMSFSWDWSGHNYINEIFATSSYTFSYIAQE
chain 3: MRRAAMYEEGPPPSYESVVSAAPVAAALGSPFDAPLDPPFVPPRYLRPTGGRNSIRYSELAPLFDTTRVYLVDNKSTDVASLNYQNDHSNFLTTVIQNNDYSPGEASTQTINLDDRSHWGGDLKTILHTNMPNVNEFMFTNKFKARVMVSRLPTKDNQVELKYEWVEFTLPEGNYSETMTIDLMNNAIVEHYLKVGRQNGVLESDIGVKFDTRNFRLGFDPVTGLVMPGVYTNEAFHPDIILLPGCGVDFTHSRLSNLLGIRKRQPFQEGFRITYDDLEGGNIPALLDVDAYQASLKDDTEQGGGGAGGSNSSGSGAEENSNAAAAAMQPVEDMNDHAIRGDTFATRAEEKRAEAEAAAEAAAPAAQPEVEKPQKKPVIKPLTEDSKKRSYNLISNDSTFTQYRSWYLAYNYGDPQTGIRSWTLLCTPDVTCGSEQVYWSLPDMMQDPVTFRSTRQISNFPVVGAELLPVHSKSFYNDQAVYSQLIRQFTSLTHVFNRFPENQILARPPAPTITTVSENVPALTDHGTLPLRNSIGGVQRVTITDARRRTCPYVYKALGIVSPRVLSSRTF

Variants of: B1
Assay: SPR
Settings: with partner chain of the complex shown, read off a plot; for Kd / screen value: steady-state binding curves at 80 sec of association time, 3-fold dilution series from 3 µM to 111 nM
[1] = defensin at 333 nM, immobilized rPenton (2115 RU), peak of sensorgram at end of association (about 180 sec)

**Q.** With chain 1 I22A as the variant, how does the response [1] read?
**A.** 490 RU

**Q.** What about the Kd (immobilized rPenton (2115 RU)) of the same variant?
**A.** 1500 nM

**Q.** What about the screen value (immobilized rPenton (2115 RU)) of the same variant?
**A.** 1600 RU

**Q.** What does the source list for chain 1 E21A?
**A.** response [1]: 480 RU; Kd (immobilized rPenton (2115 RU)): 1600 nM; screen value (immobilized rPenton (2115 RU)): 1600 RU

**Q.** With chain 1 R28A as the variant, how does the response [1] read?
**A.** 340 RU

**Q.** What about the Kd (immobilized rPenton (2115 RU)) of the same variant?
**A.** 1300 nM

**Q.** What about the screen value (immobilized rPenton (2115 RU)) of the same variant?
**A.** 1100 RU

**Q.** chain 1 V19A was tested. Which response [1] did it give?
**A.** 260 RU

**Q.** What about the screen value (immobilized rPenton (2115 RU)) of the same variant?
**A.** 1200 RU

**Q.** What does the source list for chain 1 T12A?
**A.** response [1]: 630 RU; Kd (immobilized rPenton (2115 RU)): 1500 nM; screen value (immobilized rPenton (2115 RU)): 2200 RU

**Q.** With chain 1 L26A as the variant, how does the response [1] read?
**A.** 200 RU

**Q.** What about the Kd (immobilized rPenton (2115 RU)) of the same variant?
**A.** 1300 nM

**Q.** And the screen value (immobilized rPenton (2115 RU))?
**A.** 700 RU

**Q.** What about the response (steady-state response at 80 sec of association time, point at 3 µM defensin) of the same variant?
**A.** 520 RU

**Q.** What does the source list for chain 1 T7A?
**A.** response [1]: 690 RU; Kd (immobilized rPenton (2115 RU)): 1300 nM; screen value (immobilized rPenton (2115 RU)): 2100 RU
